The results in this text go back to IntAct's records for PubMed 25910212.

Some targets named below: trip6_human TRIP6 (UniProt Q15654); mdfi_human MDFI (UniProt Q99750); lzts2_human LZTS2 (UniProt Q9BRK4); kra32_human KRTAP3-2 (UniProt Q9BYR7); pnma1_human PNMA1 (UniProt Q8ND90); praf1_human RABAC1 (UniProt Q9UI14); shlb1_human SH3GLB1 (UniProt Q9Y371); ldaf1_human LDAF1 (UniProt Q96B96); reep6_human REEP6 (UniProt Q96HR9); tfp11_human TFIP11 (UniProt Q9UBB9); dtx2_human DTX2 (UniProt Q86UW9); gsto2_human GSTO2 (UniProt Q9H4Y5); cap2_human CAP2 (UniProt P40123); cof2_human CFL2 (UniProt Q9Y281).

Assay [1] addresses T1, smim3_human SMIM3 (UniProt Q9BZL3).
T1 sequence: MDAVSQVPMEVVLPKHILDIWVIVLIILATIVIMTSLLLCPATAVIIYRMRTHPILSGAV

The target of a further assay is T2, tmm79_human TMEM79 (UniProt Q9BSE2).
T2 sequence: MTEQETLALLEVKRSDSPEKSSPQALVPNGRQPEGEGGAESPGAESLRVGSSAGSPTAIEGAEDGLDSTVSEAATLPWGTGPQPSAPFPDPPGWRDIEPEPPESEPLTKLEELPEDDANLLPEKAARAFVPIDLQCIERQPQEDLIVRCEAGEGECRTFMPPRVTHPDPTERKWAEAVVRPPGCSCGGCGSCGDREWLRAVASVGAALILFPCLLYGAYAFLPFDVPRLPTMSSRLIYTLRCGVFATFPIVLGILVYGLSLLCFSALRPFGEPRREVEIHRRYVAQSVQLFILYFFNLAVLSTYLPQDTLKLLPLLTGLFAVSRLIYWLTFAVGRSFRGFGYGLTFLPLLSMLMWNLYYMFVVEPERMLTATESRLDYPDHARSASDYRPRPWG

The target of the next assay is T3, SYNE4, Q8N205-2.
T3 sequence: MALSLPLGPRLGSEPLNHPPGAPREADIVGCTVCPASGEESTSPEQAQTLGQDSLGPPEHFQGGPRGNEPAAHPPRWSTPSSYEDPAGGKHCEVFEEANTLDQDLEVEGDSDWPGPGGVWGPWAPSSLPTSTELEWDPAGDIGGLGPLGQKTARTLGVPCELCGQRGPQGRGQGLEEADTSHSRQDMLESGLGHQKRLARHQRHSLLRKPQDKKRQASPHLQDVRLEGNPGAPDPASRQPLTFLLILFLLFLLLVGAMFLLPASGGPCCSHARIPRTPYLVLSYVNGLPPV

Assay [2] concerns the target T1, smim3_human SMIM3. The source holds these as a separate data set.

UBQLN1, Q9UMX0-2, sequence (Q9UMX0 other isoform, or with tags, fused parts or gaps): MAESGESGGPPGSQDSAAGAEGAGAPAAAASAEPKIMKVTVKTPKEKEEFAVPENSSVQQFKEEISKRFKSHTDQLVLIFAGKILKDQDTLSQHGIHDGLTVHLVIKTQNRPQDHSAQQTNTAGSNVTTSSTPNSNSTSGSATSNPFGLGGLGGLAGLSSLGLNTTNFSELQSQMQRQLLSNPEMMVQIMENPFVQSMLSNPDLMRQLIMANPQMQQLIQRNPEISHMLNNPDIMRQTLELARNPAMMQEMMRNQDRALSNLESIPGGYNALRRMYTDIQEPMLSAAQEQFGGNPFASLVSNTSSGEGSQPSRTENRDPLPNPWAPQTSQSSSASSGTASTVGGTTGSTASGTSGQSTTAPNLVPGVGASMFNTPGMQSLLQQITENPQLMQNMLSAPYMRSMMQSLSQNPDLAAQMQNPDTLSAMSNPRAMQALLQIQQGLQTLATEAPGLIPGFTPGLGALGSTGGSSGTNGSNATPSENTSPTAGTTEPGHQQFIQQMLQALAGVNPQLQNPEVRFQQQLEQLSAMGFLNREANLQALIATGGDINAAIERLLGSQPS
tfp11_human TFIP11, sequence (Q9UBB9 whole entry): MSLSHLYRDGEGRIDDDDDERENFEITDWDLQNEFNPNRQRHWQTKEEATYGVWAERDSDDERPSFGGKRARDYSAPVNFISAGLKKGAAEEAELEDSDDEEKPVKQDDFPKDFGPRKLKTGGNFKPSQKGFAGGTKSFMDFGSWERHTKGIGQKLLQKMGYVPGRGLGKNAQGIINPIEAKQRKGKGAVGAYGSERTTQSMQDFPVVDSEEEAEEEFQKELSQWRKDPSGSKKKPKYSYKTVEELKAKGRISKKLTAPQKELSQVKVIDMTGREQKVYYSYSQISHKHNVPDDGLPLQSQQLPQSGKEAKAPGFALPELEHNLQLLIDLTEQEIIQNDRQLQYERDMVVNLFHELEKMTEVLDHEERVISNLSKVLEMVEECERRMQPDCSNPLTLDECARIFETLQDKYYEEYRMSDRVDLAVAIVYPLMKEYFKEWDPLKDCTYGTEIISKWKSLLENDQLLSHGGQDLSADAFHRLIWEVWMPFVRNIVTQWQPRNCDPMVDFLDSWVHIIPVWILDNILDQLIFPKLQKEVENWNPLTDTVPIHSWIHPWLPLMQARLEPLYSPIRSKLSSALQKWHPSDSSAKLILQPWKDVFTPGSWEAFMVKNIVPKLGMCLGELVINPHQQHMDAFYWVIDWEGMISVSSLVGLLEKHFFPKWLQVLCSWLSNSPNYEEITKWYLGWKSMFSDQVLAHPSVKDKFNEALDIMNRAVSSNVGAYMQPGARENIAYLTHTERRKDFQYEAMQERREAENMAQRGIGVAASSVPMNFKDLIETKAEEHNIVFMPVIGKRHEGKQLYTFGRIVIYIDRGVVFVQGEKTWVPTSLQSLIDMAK
TMEM239, Q8WW34-2, sequence (Q8WW34 44-195): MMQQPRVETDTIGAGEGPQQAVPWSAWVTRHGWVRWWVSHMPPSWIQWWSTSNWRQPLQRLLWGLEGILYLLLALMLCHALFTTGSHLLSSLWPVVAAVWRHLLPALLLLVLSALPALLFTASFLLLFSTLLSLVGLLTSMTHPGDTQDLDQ
shlb1_human SH3GLB1, sequence (Q9Y371 whole entry): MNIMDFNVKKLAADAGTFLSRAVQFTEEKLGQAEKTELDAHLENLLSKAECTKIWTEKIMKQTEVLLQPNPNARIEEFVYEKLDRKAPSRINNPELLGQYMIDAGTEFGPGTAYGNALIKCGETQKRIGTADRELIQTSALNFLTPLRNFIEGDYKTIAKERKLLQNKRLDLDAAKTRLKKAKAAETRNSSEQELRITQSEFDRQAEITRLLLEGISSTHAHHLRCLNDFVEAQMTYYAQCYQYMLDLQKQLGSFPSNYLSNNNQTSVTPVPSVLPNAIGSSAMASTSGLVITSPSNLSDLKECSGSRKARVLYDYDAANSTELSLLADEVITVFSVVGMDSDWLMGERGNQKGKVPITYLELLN
pnma1_human PNMA1, sequence (Q8ND90 whole entry): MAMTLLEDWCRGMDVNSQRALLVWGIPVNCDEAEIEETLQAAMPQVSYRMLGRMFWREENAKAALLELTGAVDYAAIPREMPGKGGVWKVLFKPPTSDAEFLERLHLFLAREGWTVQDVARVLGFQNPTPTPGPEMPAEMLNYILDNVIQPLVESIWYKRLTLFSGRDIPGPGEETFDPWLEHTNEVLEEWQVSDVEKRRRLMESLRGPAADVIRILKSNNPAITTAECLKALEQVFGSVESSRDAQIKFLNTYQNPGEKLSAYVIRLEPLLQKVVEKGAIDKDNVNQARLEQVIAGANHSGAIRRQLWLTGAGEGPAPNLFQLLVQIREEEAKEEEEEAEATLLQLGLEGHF
Erythroid transcription factor (Homo sapiens), P15976-2 G208R, sequence (P15976 other isoform, or with tags, fused parts or gaps G208R): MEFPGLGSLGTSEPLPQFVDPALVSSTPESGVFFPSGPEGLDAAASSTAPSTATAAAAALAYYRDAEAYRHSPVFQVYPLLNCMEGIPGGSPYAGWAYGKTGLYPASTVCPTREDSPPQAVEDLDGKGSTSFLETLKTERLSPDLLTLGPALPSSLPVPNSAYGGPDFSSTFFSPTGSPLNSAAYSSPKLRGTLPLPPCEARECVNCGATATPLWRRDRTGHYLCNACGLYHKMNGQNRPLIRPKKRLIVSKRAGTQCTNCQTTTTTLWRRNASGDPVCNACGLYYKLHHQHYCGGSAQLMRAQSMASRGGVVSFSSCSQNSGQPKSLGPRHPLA
Erythroid transcription factor (Homo sapiens), P15976-2 D218G, sequence (P15976 other isoform, or with tags, fused parts or gaps D218G): as the sequence (P15976 other isoform, or with tags, fused parts or gaps G208R) above
dtx2_human DTX2, sequence (Q86UW9 whole entry): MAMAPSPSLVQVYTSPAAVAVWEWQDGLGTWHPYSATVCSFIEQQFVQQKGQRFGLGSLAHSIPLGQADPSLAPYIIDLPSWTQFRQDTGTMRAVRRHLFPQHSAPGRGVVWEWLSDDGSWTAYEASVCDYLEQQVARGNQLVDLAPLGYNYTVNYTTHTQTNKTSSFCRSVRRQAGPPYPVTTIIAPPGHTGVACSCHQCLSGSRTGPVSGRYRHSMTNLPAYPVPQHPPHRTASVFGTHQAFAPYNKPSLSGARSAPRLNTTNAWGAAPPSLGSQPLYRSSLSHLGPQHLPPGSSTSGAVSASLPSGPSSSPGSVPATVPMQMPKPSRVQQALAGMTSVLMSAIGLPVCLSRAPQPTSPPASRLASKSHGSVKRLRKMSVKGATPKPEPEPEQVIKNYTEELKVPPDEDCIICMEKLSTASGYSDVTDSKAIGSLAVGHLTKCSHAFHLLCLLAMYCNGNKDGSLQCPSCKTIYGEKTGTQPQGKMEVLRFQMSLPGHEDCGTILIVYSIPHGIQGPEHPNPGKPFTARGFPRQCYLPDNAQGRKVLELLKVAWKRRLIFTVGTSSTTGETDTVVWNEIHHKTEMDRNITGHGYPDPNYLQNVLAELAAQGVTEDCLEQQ
praf1_human RABAC1, sequence (Q9UI14 whole entry): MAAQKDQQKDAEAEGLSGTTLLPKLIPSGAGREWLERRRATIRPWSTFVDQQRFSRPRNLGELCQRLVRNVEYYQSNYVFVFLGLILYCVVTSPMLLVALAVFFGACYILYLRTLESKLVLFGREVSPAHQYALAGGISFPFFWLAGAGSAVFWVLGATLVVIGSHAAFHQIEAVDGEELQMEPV
CMTM5, Q96DZ9-2, sequence (Q96DZ9 other isoform, or with tags, fused parts or gaps): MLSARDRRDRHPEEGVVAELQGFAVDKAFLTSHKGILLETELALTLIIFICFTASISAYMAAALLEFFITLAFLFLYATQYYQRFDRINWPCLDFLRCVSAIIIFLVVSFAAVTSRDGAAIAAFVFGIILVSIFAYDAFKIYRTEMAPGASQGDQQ
ldaf1_human LDAF1, sequence (Q96B96 whole entry): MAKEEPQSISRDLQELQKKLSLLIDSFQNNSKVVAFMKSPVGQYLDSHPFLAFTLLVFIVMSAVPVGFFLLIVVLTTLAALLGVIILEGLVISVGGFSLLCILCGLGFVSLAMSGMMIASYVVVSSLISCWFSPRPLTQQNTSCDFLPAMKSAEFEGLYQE
reep6_human REEP6, sequence (Q96HR9 whole entry): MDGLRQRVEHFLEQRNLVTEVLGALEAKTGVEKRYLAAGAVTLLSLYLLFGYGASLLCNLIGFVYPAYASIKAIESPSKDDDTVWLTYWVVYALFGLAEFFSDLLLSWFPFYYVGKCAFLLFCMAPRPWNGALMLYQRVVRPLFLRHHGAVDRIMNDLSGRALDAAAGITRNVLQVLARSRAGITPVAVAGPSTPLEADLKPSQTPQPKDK
AGTRAP, Q6RW13-2, sequence (Q6RW13 other isoform, or with tags, fused parts or gaps): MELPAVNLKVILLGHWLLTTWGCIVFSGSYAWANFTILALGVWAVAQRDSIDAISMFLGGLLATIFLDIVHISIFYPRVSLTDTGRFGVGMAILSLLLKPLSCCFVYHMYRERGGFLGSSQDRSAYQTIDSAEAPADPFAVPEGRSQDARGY
gsto2_human GSTO2, sequence (Q9H4Y5 whole entry): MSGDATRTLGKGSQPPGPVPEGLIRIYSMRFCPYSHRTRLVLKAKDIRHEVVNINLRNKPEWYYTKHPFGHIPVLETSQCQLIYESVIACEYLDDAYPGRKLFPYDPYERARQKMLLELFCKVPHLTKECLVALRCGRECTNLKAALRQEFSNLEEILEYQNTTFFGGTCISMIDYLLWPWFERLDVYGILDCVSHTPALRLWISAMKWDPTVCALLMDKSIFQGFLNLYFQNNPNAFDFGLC
kra32_human KRTAP3-2, sequence (Q9BYR7 whole entry): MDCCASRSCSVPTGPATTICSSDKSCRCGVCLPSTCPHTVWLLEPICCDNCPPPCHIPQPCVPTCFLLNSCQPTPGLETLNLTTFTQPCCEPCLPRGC

Take “Erythroid transcription factor (Homo sapiens), P15976-2 D218G”: the “effect of a mutation on the interaction” value with trip6_human TRIP6, with mdfi_human MDFI, with lzts2_human LZTS2 and in the assay with kra32_human KRTAP3-2 was “with no effect” throughout.
Regarding “Cytosolic 5'-nucleotidase 3A (Homo sapiens) (from UniProt Q9H0P0) G207R”, in the assay with UBQLN1, Q9UMX0-2, the “effect of a mutation on the interaction” value is recorded as “disrupting interaction strength”.
For the substance “Cytosolic 5'-nucleotidase 3A (Homo sapiens) (from UniProt Q9H0P0) F36L”, the “effect of a mutation on the interaction” value with UBQLN1, Q9UMX0-2 is reported as “with no effect”.
On to “Erythroid transcription factor (Homo sapiens), P15976-2 G208R”, for which the “effect of a mutation on the interaction” value with trip6_human TRIP6, with mdfi_human MDFI, with lzts2_human LZTS2 and in the assay with kra32_human KRTAP3-2 was “with no effect” in each case.
Regarding “Aprataxin (Homo sapiens), Q7Z2E3-7 A198V”, the “effect of a mutation on the interaction” value with pnma1_human PNMA1 is “with no effect”.
For “Atypical kinase COQ8A, mitochondrial (Homo sapiens), Q8NI60 Y514C”, the “effect of a mutation on the interaction” value with praf1_human RABAC1 is reported as “with no effect”; with shlb1_human SH3GLB1, “with no effect”; in the assay with CMTM5, Q96DZ9-2, “with no effect”; with TMEM239, Q8WW34-2 it was “with no effect”; with AGTRAP, Q6RW13-2 it was “with no effect”; in the assay with ldaf1_human LDAF1, “with no effect”. Moreover, the “effect of a mutation on the interaction” value in the assay with reep6_human REEP6, with tfp11_human TFIP11 and in the assay with dtx2_human DTX2 was “with no effect” in each case.
As for “Aprataxin (Homo sapiens), Q7Z2E3-7 H228R”, the “effect of a mutation on the interaction” value with pnma1_human PNMA1 was “disrupting interaction strength”.
In the case of “Transcription factor AP-2-alpha (Homo sapiens), P05549-5 G256E”, the “effect of a mutation on the interaction” value with gsto2_human GSTO2 was “with no effect”.
With “Cytosolic 5'-nucleotidase 3A (Homo sapiens) (from UniProt Q9H0P0) G280R”, the “effect of a mutation on the interaction” value with UBQLN1, Q9UMX0-2 is recorded as “with no effect”.
Turning to “Transcription factor AP-2-alpha (Homo sapiens), P05549-5 R249G”, the “effect of a mutation on the interaction” value with gsto2_human GSTO2 is “with no effect”.
Turning to “Surfactant protein C (Homo sapiens) (from UniProt P11686) P30L”, the “effect of a mutation on the interaction” value was “with no effect” with smim3_human SMIM3 [1]; “with no effect” with tmm79_human TMEM79; “with no effect” with SYNE4, Q8N205-2; “causing an interaction” with smim3_human SMIM3 [2].
In the case of “Atypical kinase COQ8A, mitochondrial (Homo sapiens), Q8NI60 G272V”, the “effect of a mutation on the interaction” value in the assay with praf1_human RABAC1 is listed as “disrupting interaction strength”; in the assay with shlb1_human SH3GLB1, “with no effect”; with CMTM5, Q96DZ9-2, “with no effect”; with TMEM239, Q8WW34-2, “disrupting interaction strength”; in the assay with AGTRAP, Q6RW13-2, “with no effect”; in the assay with ldaf1_human LDAF1 it was “disrupting interaction strength”. Further, the “effect of a mutation on the interaction” value with reep6_human REEP6 is recorded as “disrupting interaction strength”; with tfp11_human TFIP11, “disrupting interaction strength”; with dtx2_human DTX2, “with no effect”.
Turning to “Cytosolic 5'-nucleotidase 3A (Homo sapiens) (from UniProt Q9H0P0) D137V”, the “effect of a mutation on the interaction” value with UBQLN1, Q9UMX0-2 was “with no effect”.
For the substance “Transcription factor AP-2-alpha (Homo sapiens), P05549-5 R248W”, in the assay with gsto2_human GSTO2, the “effect of a mutation on the interaction” value was “with no effect”.
For “Atypical kinase COQ8A, mitochondrial (Homo sapiens), Q8NI60 R213W”, the “effect of a mutation on the interaction” value was “disrupting interaction strength” with praf1_human RABAC1; “disrupting interaction strength” with shlb1_human SH3GLB1; “disrupting interaction strength” in the assay with CMTM5, Q96DZ9-2; “disrupting interaction strength” with TMEM239, Q8WW34-2; “disrupting interaction strength” with AGTRAP, Q6RW13-2; “disrupting interaction strength” in the assay with ldaf1_human LDAF1. The “effect of a mutation on the interaction” value in the assay with reep6_human REEP6, with tfp11_human TFIP11 and with dtx2_human DTX2 was “disrupting interaction strength” in each case.
For the substance “Atypical kinase COQ8A, mitochondrial (Homo sapiens), Q8NI60 H85Q”, the “effect of a mutation on the interaction” value with praf1_human RABAC1 is “with no effect”; in the assay with shlb1_human SH3GLB1, “with no effect”; in the assay with CMTM5, Q96DZ9-2, “with no effect”; with TMEM239, Q8WW34-2, “with no effect”; in the assay with AGTRAP, Q6RW13-2, “with no effect”; with ldaf1_human LDAF1 it was “with no effect”. The “effect of a mutation on the interaction” value with reep6_human REEP6, with tfp11_human TFIP11 and in the assay with dtx2_human DTX2 was “with no effect” throughout.
Regarding “Cytosolic 5'-nucleotidase 3A (Homo sapiens) (from UniProt Q9H0P0) C113R”, in the assay with UBQLN1, Q9UMX0-2, the “effect of a mutation on the interaction” value is “with no effect”.
Take “Aprataxin (Homo sapiens), Q7Z2E3-7 V263G”: the “effect of a mutation on the interaction” value in the assay with pnma1_human PNMA1 is listed as “disrupting interaction strength”.
Take “Atypical kinase COQ8A, mitochondrial (Homo sapiens), Q8NI60 E551K”: the “effect of a mutation on the interaction” value is given as “disrupting interaction strength” with praf1_human RABAC1; “disrupting interaction strength” with shlb1_human SH3GLB1; “with no effect” with CMTM5, Q96DZ9-2; “disrupting interaction strength” with TMEM239, Q8WW34-2; “with no effect” in the assay with AGTRAP, Q6RW13-2; “disrupting interaction strength” in the assay with ldaf1_human LDAF1. Moreover, the “effect of a mutation on the interaction” value in the assay with reep6_human REEP6, in the assay with tfp11_human TFIP11 and with dtx2_human DTX2 was “disrupting interaction strength” each time.
As to “Surfactant protein C (Homo sapiens) (from UniProt P11686) H64P”, the “effect of a mutation on the interaction” value with smim3_human SMIM3 [1] was “with no effect”; with tmm79_human TMEM79, “with no effect”; in the assay with SYNE4, Q8N205-2 it was “with no effect”; with smim3_human SMIM3 [2], “causing an interaction”.
Regarding “Atypical kinase COQ8A, mitochondrial (Homo sapiens), Q8NI60 H80Y”, the “effect of a mutation on the interaction” value is on record as “with no effect” with praf1_human RABAC1; “with no effect” with shlb1_human SH3GLB1; “with no effect” with CMTM5, Q96DZ9-2; “with no effect” in the assay with TMEM239, Q8WW34-2; “with no effect” with AGTRAP, Q6RW13-2; “with no effect” with ldaf1_human LDAF1. The “effect of a mutation on the interaction” value with reep6_human REEP6, in the assay with tfp11_human TFIP11 and with dtx2_human DTX2 was “with no effect” each time.
Take “Actin, cytoplasmic 2 (Homo sapiens) (from UniProt P63261) I122V”: the “effect of a mutation on the interaction” value with cap2_human CAP2 and with cof2_human CFL2 was “disrupting interaction strength” each time.
